In the Immune Epitope Database (IEDB):

Legend:
Experiment in all cases: IEDB peptide-MHC binding, purified MHC/competitive/radioactivity; filed as Kd, often an IC50 or EC50 that approximates it; ≥ and ≤ were set here for values at or beyond the usual limits of such assays
[1] = target: HLA-A*02:03
[2] = target: HLA-A*33:01
[3] = target: HLA-A*03:01
[4] = target: HLA-A*11:01
[5] = target: HLA-A*68:01
[6] = target: HLA-A*31:01
[7] = target: HLA-A*02:06; conditions: source organism: Dengue virus 2 Jamaica/1409/1983
[8] = source organism: Dengue virus 3 Martinique/1243/1999
[9] = source organism: Vaccinia virus WR
[10] = source organism: Lassa virus Josiah
[11] = source organism: SARS coronavirus Tor2
[12] = source organism: Dengue virus 1 Brazil/97-11/1997
[13] = source organism: Dengue virus 4 Philippines/H241/1956
[14] = source organism: Mammarenavirus juninense
[15] = source organism: Dengue virus 1 Singapore/S275/1990
[16] = source organism: Dengue virus 2 Jamaica/1409/1983
[17] = source organism: Dengue virus 3 Sri Lanka/1266/2000
[18] = source organism: Vaccinia virus Copenhagen
[19] = source organism: Lymphocytic choriomeningitis virus (strain Traub)
[20] = source organism: Mammarenavirus guanaritoense
[21] = source organism: Dengue virus 2 Peru/IQT2913/1996

SLAAIANQA gave a Kd [1, 8] of 0.055 µM.
With GIGTFLHYK the Kd [2, 9] was 3.78 µM, the Kd [3, 9] was 0.0078 µM and the Kd [4, 9] was 0.000585 µM. It also gave a Kd [5, 9] of 0.024 µM and a Kd [6, 9] of 0.0657 µM.
In the case of GSYIALDSGR, the Kd [2, 10] is reported as 1.16 µM, the Kd [3, 10] is reported as 4.23 µM and the Kd [4, 10] is reported as 0.15 µM. For the same sequence, the Kd [5, 10] was 0.276 µM and the Kd [6, 10] was 0.0783 µM.
YFSKQTQTY was tested, and the Kd [2, 9] was no less than 30.4 µM, the Kd [3, 9] was 17.3 µM and the Kd [4, 9] was no less than 27.5 µM. For the same sequence, the Kd [5, 9] was 1.73 µM and the Kd [6, 9] was no less than 25 µM.
For MLNRVQILMK, the Kd [2, 9] was 2.78 µM, the Kd [3, 9] was 0.00128 µM and the Kd [4, 9] was 0.13 µM. The Kd [5, 9] was 0.698 µM and the Kd [6, 9] was 0.619 µM.
VSQLAKRFSK showed a Kd ([4]; source organism: Dengue virus 1 Nauru/West Pac/1974) of 0.126 µM.
Sequence TMLFTMLRK has a Kd [2, 11] of 13.2 µM, a Kd [3, 11] of 0.00741 µM and a Kd [4, 11] of 0.02 µM. It also gave a Kd [5, 11] of 1.58 µM and a Kd [6, 11] of 0.901 µM.
EVGAIALDFK gave a Kd [5, 12] of 0.0156 µM.
Sequence PSTDVNKQNK has a Kd [2, 9] of no less than 70 µM, a Kd [3, 9] of 1.26 µM and a Kd [4, 9] of 3.61 µM. It also gave a Kd [5, 9] of no less than 26.8 µM and a Kd [6, 9] of 4.78 µM.
Sequence TLCAIILGGL has a Kd [1, 13] of 0.0037 µM.
ETTKHAVSR showed a Kd [2, 12] of 0.0106 µM and a Kd [5, 12] of 0.0103 µM.
In the case of YTKFWYVNH, the Kd [2, 14] is reported as 0.0282 µM, the Kd [3, 14] is reported as 10.3 µM and the Kd [4, 14] is reported as 17.8 µM. For the same sequence, the Kd [5, 14] was 6.51 µM and the Kd [6, 14] was 0.604 µM.
VQTAPGTFK showed a Kd [4, 15] of 0.129 µM.
Work on MSHLKVALY yielded a Kd [2, 9] of 18.1 µM, a Kd [3, 9] of 0.32 µM and a Kd [4, 9] of 1.69 µM. The Kd [5, 9] was 0.147 µM and the Kd [6, 9] was 0.703 µM.
YLWEVKKQR gave a Kd [2, 16] of 0.0654 µM.
With LTALNDMGK the Kd [4, 16] was 1.45 µM and the Kd [5, 16] was 0.528 µM.
In the case of IVSSVNMVSR, the Kd [2, 17] is reported as 0.346 µM, the Kd [5, 17] is reported as 0.00922 µM and the Kd [6, 17] is reported as 0.0827 µM.
With ILHVDNHIGI the Kd ([1]; source organism: Homo sapiens) was 0.0111 µM.
Sequence RSLQTIASK has a Kd [2, 9] of no less than 77.7 µM, a Kd [3, 9] of 0.0015 µM and a Kd [4, 9] of 0.00732 µM. For the same sequence, the Kd [5, 9] was 0.187 µM and the Kd [6, 9] was 0.0043 µM.
KSVLDIISSK gave a Kd [2, 18] of 19.9 µM, a Kd [3, 18] of 0.0245 µM and a Kd [4, 18] of 0.00896 µM. The Kd [5, 18] was 0.267 µM and the Kd [6, 18] was 0.152 µM.
With AVSTANIFR the Kd [4, 13] was 0.0907 µM and the Kd [5, 13] was 0.0296 µM.
Sequence CFKEASFSKR has a Kd [2, 9] of 0.0614 µM, a Kd [3, 9] of 9.16 µM and a Kd [4, 9] of no less than 43.6 µM. For the same sequence, the Kd [5, 9] was 1.64 µM and the Kd [6, 9] was 0.0359 µM.
Work on NTPECPSASR yielded a Kd [5, 8] of 0.00483 µM.
SISSVLTILY was tested, and the Kd [2, 9] was 2.24 µM, the Kd [3, 9] was 0.206 µM and the Kd [4, 9] was 0.107 µM. It also gave a Kd [5, 9] of 0.907 µM and a Kd [6, 9] of 9.23 µM.
QLEQPYVFIK was tested, and the Kd [2, 11] was no less than 70 µM, the Kd [3, 11] was 6.68 µM and the Kd [4, 11] was 2.99 µM. For the same sequence, the Kd [5, 11] was 17.2 µM and the Kd [6, 11] was 11.3 µM.
LSKIPYLRNY showed a Kd [2, 9] of 9.09 µM, a Kd [3, 9] of 6.94 µM and a Kd [4, 9] of 2.61 µM. The Kd [5, 9] was 9.65 µM and the Kd [6, 9] was 0.32 µM.
MSAAIKDSK showed a Kd [4, 12] of 1.12 µM and a Kd [5, 12] of 0.0766 µM.
With LTTHCTKLR the Kd [2, 9] was 4.53 µM, the Kd [3, 9] was no less than 78 µM and the Kd [4, 9] was no less than 77.9 µM. It also gave a Kd [5, 9] of 0.3 µM and a Kd [6, 9] of 8.51 µM.
TSPGEIKPK was tested, and the Kd [2, 9] was no less than 77.7 µM, the Kd [3, 9] was no less than 61.8 µM and the Kd [4, 9] was 1.04 µM. The Kd [5, 9] was 4.81 µM and the Kd [6, 9] was no less than 22.5 µM.
Sequence KCHDHYLCR has a Kd [2, 19] of 1.35 µM, a Kd [3, 19] of 7.63 µM and a Kd [4, 19] of 3.27 µM. It also gave a Kd [5, 19] of no less than 48 µM and a Kd [6, 19] of 0.109 µM.
Sequence LTIMDLHPGA has a Kd [7] of 0.105 µM.
With QMWQLMYFHR the Kd [2, 12] was 0.000396 µM and the Kd [6, 12] was no less than 39.9 µM.
Sequence VSSVNTTSK has a Kd [4, 13] of 1.39 µM.
MGANFRAGR gave a Kd [5, 13] of 0.0467 µM.
Work on IMAYVNQAHH yielded a Kd [2, 20] of 3.92 µM, a Kd [3, 20] of 4.01 µM and a Kd [5, 20] of 0.097 µM. For the same sequence, the Kd [6, 20] was 1.12 µM.
ATLTEGVYR showed a Kd [6, 13] of 0.00726 µM.
NMTSRMLLNR showed a Kd [2, 12] of 0.0737 µM, a Kd [5, 12] of 0.47 µM and a Kd [6, 12] of 12 µM.
DISEMGANFR gave a Kd [2, 12] of 0.231 µM and a Kd [5, 12] of 0.0129 µM.
Work on LLILCTSQI yielded a Kd [1, 12] of 0.00871 µM.
For HATMLDVDLR, the Kd [5, 15] was 0.0906 µM.
Sequence IFTLTVAWR has a Kd [2, 17] of 0.00589 µM and a Kd [6, 17] of 0.163 µM.
For RLASAILNA, the Kd [1, 13] was 0.0228 µM.
In the case of DVPSPAAAQK, the Kd [5, 13] is reported as 0.192 µM.
With NIHTAITQVR the Kd [5, 13] was 0.167 µM.
ATTFITPMLR was tested, and the Kd [4, 21] was 0.014 µM, the Kd [5, 21] was 0.0153 µM and the Kd [6, 21] was 0.0486 µM.
Work on AVVLMGLDK yielded a Kd [4, 8] of 2.47 µM.
QMWSLMYFHR gave a Kd [2, 8] of 0.00414 µM and a Kd [6, 8] of 0.00141 µM.
Work on CTGSFKLEK yielded a Kd [4, 12] of 0.0398 µM.
VIYDSKFEK showed a Kd [3, 8] of 0.0643 µM and a Kd [4, 8] of 0.0416 µM.
GLAMGIMMLK was tested, and the Kd [3, 12] was 0.0121 µM and the Kd [4, 12] was 0.156 µM.
For LQMEDKAWL, the Kd [7] was 0.0322 µM.
With ILKEPVHGV the Kd ([1]; source organism: Human immunodeficiency virus type 1 BH10) was 0.0063 µM.
With LMYFHRRDLR the Kd [2, 16] was 0.0173 µM, the Kd [3, 16] was 0.142 µM and the Kd [5, 16] was 0.207 µM. For the same sequence, the Kd [6, 16] was 0.000556 µM.
For TLWEGSPGK, the Kd [3, 12] was 0.328 µM.
With MTLMKGASKR the Kd [2, 13] was 0.0682 µM, the Kd [5, 13] was 0.0945 µM and the Kd [6, 13] was 0.0785 µM.
